# Experimental data reported in patent publication US20140341881.
# Assays:
# [1] = tested on: CFP-LQRAI-YFP-6xHis substrate (peptide E8)
# [2] = tested on: CFP-LSGGR-YFP-6xHis substrate (peptide E2)
# [3] = tested on: CFP-LSRDN-YFP-6xHis substrate (peptide E7)
# [4] = tested on: CFP-NNKLR-YFP-6xHis substrate (peptide E9)
# [5] = tested on: CFP-NQRSS-YFP-6xHis substrate (peptide E5)
# [6] = tested on: CFP-QRLRD-YFP-6xHis substrate (peptide F11)
# [7] = tested on: CFP-RGKTN-YFP-6xHis substrate (peptide D9)
# [8] = tested on: CFP-RQTND-YFP-6xHis substrate (peptide C11)
# [9] = tested on: CFP-VGSLR-YFP-6xHis substrate (peptide G1)
# [10] = tested on: CFP-YQSLN-YFP-6xHis substrate (peptide F10)
# [11] = tested on: T1, CFP-AYGYK-YFP-6xHis substrate (peptide E1)
# T1 sequence: GALGGAYGYKGST
# [12] = tested on: T2, CFP-PDRHM-YFP-6xHis substrate (peptide F3)
# T2 sequence: GALGGPDRHMGST
# human plasma kallikrein (PK), sequence (chain, as listed by the source): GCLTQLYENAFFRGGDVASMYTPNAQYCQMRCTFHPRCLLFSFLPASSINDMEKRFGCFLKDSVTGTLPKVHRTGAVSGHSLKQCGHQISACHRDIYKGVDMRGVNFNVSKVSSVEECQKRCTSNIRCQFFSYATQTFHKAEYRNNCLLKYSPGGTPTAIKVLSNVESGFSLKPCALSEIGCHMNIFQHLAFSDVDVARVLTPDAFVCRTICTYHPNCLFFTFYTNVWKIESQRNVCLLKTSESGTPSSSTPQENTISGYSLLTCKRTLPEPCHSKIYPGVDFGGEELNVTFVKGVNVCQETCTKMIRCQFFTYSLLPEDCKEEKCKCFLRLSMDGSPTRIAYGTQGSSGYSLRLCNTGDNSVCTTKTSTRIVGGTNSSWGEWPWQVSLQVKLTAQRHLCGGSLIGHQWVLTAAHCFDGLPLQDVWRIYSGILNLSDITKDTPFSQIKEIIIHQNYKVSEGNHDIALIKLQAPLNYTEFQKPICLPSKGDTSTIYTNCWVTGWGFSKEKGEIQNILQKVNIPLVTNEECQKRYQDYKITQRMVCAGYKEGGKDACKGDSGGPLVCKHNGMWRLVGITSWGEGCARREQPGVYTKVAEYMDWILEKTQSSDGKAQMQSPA
Substance,Kcat/Km [1],Kcat/Km [2],Kcat/Km [3],Kcat/Km [4],Kcat/Km [5],Kcat/Km [6],Kcat/Km [7],Kcat/Km [8],Kcat/Km [9],Kcat/Km [10],Kcat/Km [11],Kcat/Km [12]
human kallikrein 2 (hK2),25000 M⁻¹ s⁻¹,14000 M⁻¹ s⁻¹,16000 M⁻¹ s⁻¹,12000 M⁻¹ s⁻¹,14000 M⁻¹ s⁻¹,32000 M⁻¹ s⁻¹,21000 M⁻¹ s⁻¹,23000 M⁻¹ s⁻¹,21000 M⁻¹ s⁻¹,–,–,–
human kallikrein hK1,–,–,–,–,–,L.C.,–,–,–,–,–,–
human plasma kallikrein (PK),5000 M⁻¹ s⁻¹,–,–,–,5000 M⁻¹ s⁻¹,–,–,–,–,–,–,–
"prostate specific antigen (PSA, hK3)",–,–,–,–,–,–,–,–,–,L.C.,–,–
trypsin,2.27e+06 M⁻¹ s⁻¹,4.68e+06 M⁻¹ s⁻¹,246000 M⁻¹ s⁻¹,384000 M⁻¹ s⁻¹,2.07e+06 M⁻¹ s⁻¹,1.42e+06 M⁻¹ s⁻¹,2.11e+06 M⁻¹ s⁻¹,260000 M⁻¹ s⁻¹,270000 M⁻¹ s⁻¹,–,129000 M⁻¹ s⁻¹,319000 M⁻¹ s⁻¹
